This note sets out measurements from paper PMC4669242 (Bioorganic & medicinal chemistry letters, 2013).

A value given as a limit tells only on which side of the number the result lay.

Data set [1] concerns human red blood cells (hRBCs). The experiment in a line: Hemolysis assay, release of hemoglobin. It counts as cell-based. The settings on record: hRBCs in PBS pH 7.4, 1 h, 37 °C, OD405; average of two independent experiments.
The subject of the next data set is E. coli. Kind of data set: Leakage of intracellular β-galactosidase. Conditions: 1 h of treatment, 37 °C, ONPG, OD405, average of three independent experiments. It counts as cell-based, E. coli (ATCC 25922).

Take Melittin: in data set [1], the “concentration inducing hemolysis (lowest concentration tested)” value is not above 1000 nM. For the same substance, in the data set on E. coli, the “increase in β-galactosidase release as compared to control buffer” value is on record as 8 fold.
